In patent publication US20130171677A1 (BOARD OF SUPERVISORS OF THE UNIVERSITY OF LOUISIANA SYSTEM, published 2013):

Target: the molecule itself
Assay: size exclusion chromatography of purified recombinant TeCpcS (complex 53.0 kDa against ~24.0 kDa calculated for HT-TeCpcS)
Procedure: In order to determine the molecular mass of TeCpcS in its native state, the purified, recombinant TeCpcS was subjected to size exclusion chromatography. The molecular mass of this complex was calculated to be 53.0 kDa, and the calculated molecular mass of HT-TeCpcS is ˜24.0 kDa.

B1: Bilin lyase CpcS from Thermosynechococcus elongatus BP1 (TeCpcS), His-tagged (enzyme)
chain: MCIGMDIRDFFAQSAGRWFSQRTSHHLAFKQTESGKSQLTIELLSVDDPAVIALCQQYDMDPAWAVCGARVSWDGTMEWDNEKHEGSTVLVPIMDQGSRMEGKLLREMGYAEKAPVAGRFSMGSDGALTLITEYETIYSEERLWFASPNLRLRTSILKRFGGFSMASFCSEIRLGVTQPANS
notes: also called HT-TeCpcS; CpcS-III; not shown: C-terminal His-tag from the pET22c construct used for crystallization and size-exclusion chromatography
B1: binds.
